Results taken from CN113698481A (SUZHOU CENTERGENE PHARMACEUTICALS CO LTD, dated 2021).

target: T1, 人绒毛膜促性腺激素(HCG) (human, UniProt P0DN86 21-165); assay: ELISA, HCG coated at 2 μg/ml, VHH detected with anti-6xHis-HRP, 4-parameter fit
T1 construct: Alpha/beta heterodimer coated on ELISA plates; The source of the HCG preparation is lost from the text (gap after 'HCG |'); also called HCG抗原
T1 sequence (chain, as listed by the source, chain 1 of 2, other chains not shown): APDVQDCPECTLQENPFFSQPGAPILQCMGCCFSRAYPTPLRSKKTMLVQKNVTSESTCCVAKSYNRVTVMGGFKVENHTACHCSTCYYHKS

Row | Binder | EC50 [µg/mL]
1 | SEQ ID NO 5 (VHH, Expressed in E. coli, nickel column purified; Only the CDRs are printed; also called 蛋白5) VHH: QVQLVESGGGLAQAGGSLRLSCAASGRTASGYAMGWFRQAPGKEREAVAAIMWSGGSTYYADSVKGRFTISRDNAKNTVYLQMNSLKTEDTAVYYCAARTDGSGWWDYWGQGTQVTVSS | 0.00946
2 | SEQ ID NO 3 (VHH, Expressed in E. coli, nickel column purified; Only the CDRs are printed; also called 蛋白3) VHH: QVQVAESGGGLVQSGGSMNLSCTASGNLFSVDAMGWFRQAPGEEREAVAAIMWSGDSTYYANAVKGRFTISRDNAKNTVYLQMNSLKPEDTAVYYCAARLQEEGWWDYWGQGTQVTVSS | 0.0259
3 | SEQ ID NO 4 (VHH, Expressed in E. coli, nickel column purified; Only the CDRs are printed; also called 蛋白4) VHH: QVRLVESGGGLVQPGGSLRLSCTASGGTFDRYNVAWFRQAPGEEREAVASIMWSGDNTYYANSVKGRFTISRDNAKNTVYLQMNSLKPEDTAVYYCAARIQEQGWWDYWGQGTQVTVSS | 0.00505

Continued, values first:

Row | EC50 [µg/mL] | Binder
4 | 0.014 | SEQ ID NO 7 (VHH, Expressed in E. coli, nickel column purified; Only the CDRs are printed; also called 蛋白7) VHH: QVQLVESGGGLVQAGGSLRLSCVASGRTFSSYDMGWFRQAPGEEREAVAAINWSGGSTYYADSVKGRFTISSDNAKNTVYLQMNNLKPEDTAVYYCAARQVPGWWDYWGQGTQVTVSS
5 | 0.0138 | SEQ ID NO 6 (VHH, Expressed in E. coli, nickel column purified; Only the CDRs are printed; also called 蛋白6) VHH: QVQVVESGGGLVQPGGSLRLSCAASGRTVSSHAMGWFRQAPGEEREAVAAIMWSGDSTYYANAVKGRFTISRDNAKNTVYLQMNSLKPEDTAVYYCAARLQEEGWWDYWGQGTQVTVSS
